In paper PMC12796488, “Distinct structural features of Pseudomonas aeruginosa ATP synthase revealed by cryo-electron microscopy” (Nature Communications, 2025):

Biological target: the molecule itself
Experiment: cryo-EM structure; purified F1Fo complex in digitonin; 10 mM MgADP and 230 uM compound #5 added, 1 h on ice before freezing; maps at 2.0-3.0 Å

B1: P. aeruginosa ATP synthase subunit c (natural protein, Pseudomonas aeruginosa, UniProt Q9HT15 1-85, looked up)
chain: METVVGLTAIAVALLIGLGALGTAIGFGLLGGKFLEGAARQPEMVPMLQVKMFIVAGLLDAVTMIGVGIALFFTFANPFVGQIAG
notes: ATP synthase subunit c of Pseudomonas aeruginosa, expressed from the whole operon (atpIBEFHAGDC) plasmid pASH20; A ring of ten copies in the cryo-EM maps; also called c subunit; c-ring; source: E. coli DK8, purified as part of the whole F1Fo complex (digitonin extraction, Talon resin, Superose 6 SEC); copies: 10
  stoichiometry N: 10
